Drawing on the RNAGym collection of RNA variant scans (doi:10.7554/elife.80360), this text covers self-cleavage for 38 variants.

First the molecules themselves.
B1: Hairpin Ribozyme (parent)
chain: GUCCUCUUUCACGUGCGCGUGAAAGAGAGAAGUGAACCAGAGAAACACACGUUGUGGUAUAUUACCUGGUA

This data set covers variants of B1. Kind of data set: self-cleavage, relative activity (ratio to wild type); higher = more cleavage; co-transcriptional.
Turning to GUCCUCUUUCACGUGCGCGUGAAAGGAAGAAGUGAACCAGAGAAACACACGUUGUGGUAUAUUACCUGGUA [A26G G27A], the self-cleavage is 0.275.

Regarding GUCCUCUUUCACGUGCGCGUGAAAGGGAGAAGUGAACCAGAGAAACACACGAUGUGGUAUAUUACCUGGUA [A26G U52A], the self-cleavage stood at 0.896.

For the variant GUCCUCUUUCACGUGCGCGUGAAAGGGAGAAAUGAACCAGAGAAACACACGUUGUGGUAUAUUACCUGGUA [A26G G32A], the self-cleavage came out at 0.103.

Regarding GUCCUCUUUCACGUGCGCGUGAAAGCGAGAAGUGAACCAGAGAAACACACGUUGUGGUAUAUUACCUGGCA [A26C U70C], the self-cleavage is 0.728.

Take GUCCUCUUUCACGUGCGCGUGAAAGGGAGAAGUGAACCAGAGAAACACACGUUGUGGUAUAUUACCUGAUA [A26G G69A]: the self-cleavage was 0.451.

As for GUCCUCUUUCACGUGCGCGUGAAAGGGAGAAGUGAACCAGAGAAACAAACGUUGUGGUAUAUUACCUGGUA [A26G C48A], the self-cleavage was 0.13.

On to GUCCUCUUUCACGUGCGCGUGAAAGCGAGAAGUGAACCAGAGAAACACACGUUGUGGUAUAUUACCUUGUA [A26C G68U], for which the self-cleavage is 0.186.

Consider GUCCUCUUUCACGUGCGCGUGAAAGCGAGAAGUGAACCAGAGAAACACACGUUGUGGUAUAUCACCUGGUA [A26C U63C], for which the self-cleavage is 0.177.

As for GUCCUCUUUCACGUGCGCGUGAAAGCGAGAAGUGAACCAGAGAAACACACGUUGUGGCAUAUUACCUGGUA [A26C U58C], the self-cleavage was 0.771.

For the variant GUCCUCUUUCACGUGCGCGUGAAAGCGAGAAGUGAACCAGAGAAACACACGUUGUGGAAUAUUACCUGGUA [A26C U58A], the self-cleavage came to 0.623.

Consider GUCCUCUUUCACGUGCGCGUGAAAGCGAGAAGUGAACCAGAGAAACACACGUUGUGGGAUAUUACCUGGUA [A26C U58G], for which the self-cleavage was determined as 0.496.

As for GUCCUCUUUCACGUGCGCGUGAAAGGGAGAAGUGAACCAGAGAAACACAAGUUGUGGUAUAUUACCUGGUA [A26G C50A], the self-cleavage is 0.262.

Consider GUCCUCUUUCACGUGCGCGUGAAAGCGAGAAGUGAACCAGAGAAACACACGUUGUGGUAUAUUACCAGGUA [A26C U67A], for which the self-cleavage turned out to be 0.0843.

As to GUCCUCUUUCACGUGCGCGUGAAAGCGAGAAGUGAACCAGAGAAACACACGUUGUGGUAUAUUACCCGGUA [A26C U67C], the self-cleavage was found to be 0.21.

Regarding GUCCUCUUUCACGUGCGCGUGAAAGCGAGAAGUGAACCAGAGAAAUACACGUUGUGGUAUAUUACCUGGUA [A26C C46U], the self-cleavage came out at 0.172.

For GUCCUCUUUCACGUGCGCGUGAAAGCGAGAAGUGAACCAGAGAAACACACGUUGUGGUAUAUUACCUGGUC [A26C A71C], the self-cleavage is 1.08.

On to GUCCUCUUUCACGUGCGCGUGAAAGCGAGAAGUGAACCAGAGAAACACACGUUGUGGUAUAUUACAUGGUA [A26C C66A], for which the self-cleavage turned out to be 0.34.

GUCCUCUUUCACGUGCGCGUGAAAGCGAGAAGUGAACCAGAGAAACACACGUUGUGGUAUAUUACGUGGUA [A26C C66G]: the self-cleavage is 0.12.

Take GUCCUCUUUCACGUGCGCGUGAAAGCGAGAAGUGAACCAGAAAAACACACGUUGUGGUAUAUUACCUGGUA [A26C G42A]: the self-cleavage amounted to 0.12.

For the variant GUCCUCUUUCACGUGCGCGUGAAAGCGAGAAGUGAACCAGAUAAACACACGUUGUGGUAUAUUACCUGGUA [A26C G42U], the self-cleavage is 0.307.

Take GUCCUCUUUCACGUGCGCGUGAAAGCGAGAAGUGAACCAGAGAAACACACGUUGGGGUAUAUUACCUGGUA [A26C U55G]: the self-cleavage stood at 0.297.

As for GUCCUCUUUCACGUGCGCGUGAAAGGGAGAAGUGAACCAGAGAAACACACGUUGUGGUCUAUUACCUGGUA [A26G A59C], the self-cleavage amounted to 0.162.

Turning to GUCCUCUUUCACGUGCGCGUGAAAGGGAGAAGUGAACCAGAGAAACACACGUUGUGGUGUAUUACCUGGUA [A26G A59G], the self-cleavage stood at 0.158.

Regarding GUCCUCUUUCACGUGCGCGUGAAAGCGAGAAGUGAACCAGAGAAACACACGGUGUGGUAUAUUACCUGGUA [A26C U52G], the self-cleavage was 0.409.

With GUCCUCUUUCACGUGCGCGUGAAAGCGAGAAGUGAACCAGAGAAACACACGAUGUGGUAUAUUACCUGGUA [A26C U52A], the self-cleavage turned out to be 0.599.

Turning to GUCCUCUUUCACGUGCGCGUGAAAGGGAGAAGUCAACCAGAGAAACACACGUUGUGGUAUAUUACCUGGUA [A26G G34C], the self-cleavage came to 1.01.

Turning to GUCCUCUUUCACGUGCGCGUGAAAGGGAGAAGUGAACCAGAGAAACACACGUUGAGGUAUAUUACCUGGUA [A26G U55A], the self-cleavage was found to be 0.283.

As to GUCCUCUUUCACGUGCGCGUGAAAGGGAGAAGUGAACUAGAGAAACACACGUUGUGGUAUAUUACCUGGUA [A26G C38U], the self-cleavage was found to be 0.297.

In the case of GUCCUCUUUCACGUGCGCGUGAAAGGGAGAAGUGAACGAGAGAAACACACGUUGUGGUAUAUUACCUGGUA [A26G C38G], the self-cleavage turned out to be 0.138.

GUCCUCUUUCACGUGCGCGUGAAAGGGAGAAGUGAACCAGAGAAACACACGUUGUGGUAUAUUGCCUGGUA [A26G A64G]: the self-cleavage was determined as 0.55.

As for GUCCUCUUUCACGUGCGCGUGAAAGGGAGAAGUGAACCAGAGAAACACACGUUGUGGUAUAUUCCCUGGUA [A26G A64C], the self-cleavage is 0.303.

With GUCCUCUUUCACGUGCGCGUGAAAGGGAGAAGUGAACCAGAGAAACACACGUUGUGGUAUAUUUCCUGGUA [A26G A64U], the self-cleavage turned out to be 0.271.

With GUCCUCUUUCACGUGCGCGUGAAAGCGAGAAGUGAACCAGAGAAACACACGUAGUGGUAUAUUACCUGGUA [A26C U53A], the self-cleavage worked out at 0.521.

Consider GUCCUCUUUCACGUGCGCGUGAAAGCGAGAAGUGAACCAGAGAAACACACGUUGUGAUAUAUUACCUGGUA [A26C G57A], for which the self-cleavage amounted to 0.141.

As for GUCCUCUUUCACGUGCGCGUGAAAGGGAGAAGUGAACCAGAGAAACACACGUUUUGGUAUAUUACCUGGUA [A26G G54U], the self-cleavage was found to be 0.349.

Take GUCCUCUUUCACGUGCGCGUGAAAGGGAGAAGUGAACCAGAGAAACACACGUUGUGGUAUAUUACCCGGUA [A26G U67C]: the self-cleavage worked out at 0.263.

As for GUCCUCUUUCACGUGCGCGUGAAAGGGAGAAGUGAACCAGAGAAACACACGUUGUGGUAUAUUACCAGGUA [A26G U67A], the self-cleavage was found to be 0.148.

For GUCCUCUUUCACGUGCGCGUGAAAGCGAGAAGGGAACCAGAGAAACACACGUUGUGGUAUAUUACCUGGUA [A26C U33G], the self-cleavage turned out to be 0.0995.
